Reference: article PMC3098278

Key:
Test in all cases: filter binding
[1] = test system: 80S ribosome, L11 114-116R (Saccharomyces cerevisiae? (yeast)); conditions: aminoacylated (N-acetyl-Phe); Nitrocellulose filter binding, 30 C, 35 min (A-site) or 40 min (P-site), poly(U)-primed ribosomes; buffer, salt and pH not given; errors are SD
[2] = test system: 80S ribosome, L11 H109E (Saccharomyces cerevisiae? (yeast)); conditions: aminoacylated (N-acetyl-Phe); Nitrocellulose filter binding, 30 C, 35 min (A-site) or 40 min (P-site), poly(U)-primed ribosomes; buffer, salt and pH not given; errors are SD
[3] = test system: 80S ribosome, L11 H109F (Saccharomyces cerevisiae? (yeast)); conditions: aminoacylated (N-acetyl-Phe); Nitrocellulose filter binding, 30 C, 35 min (A-site) or 40 min (P-site), poly(U)-primed ribosomes; buffer, salt and pH not given; errors are SD
[4] = test system: 80S ribosome, L11 87-90R (Saccharomyces cerevisiae? (yeast)); conditions: aminoacylated (N-acetyl-Phe); Nitrocellulose filter binding, 30 C, 35 min (A-site) or 40 min (P-site), poly(U)-primed ribosomes; buffer, salt and pH not given; errors are SD
[5] = test system: 80S ribosome, wild-type L11 (Saccharomyces cerevisiae? (yeast)); conditions: aminoacylated (N-acetyl-Phe); Nitrocellulose filter binding, 30 C, 35 min (A-site) or 40 min (P-site), poly(U)-primed ribosomes; buffer, salt and pH not given; errors are SD
[6] = test system: 80S ribosome, wild-type L11 ((yeast)); conditions: poly(U), tRNAPhe in P-site, soluble factors; aminoacylated (Phe); Nitrocellulose filter binding, 30 C, 35 min (A-site) or 40 min (P-site), poly(U)-primed ribosomes; buffer, salt and pH not given; errors are SD
[7] = test system: 80S ribosome, L11 H109E ((yeast)); conditions: poly(U), tRNAPhe in P-site, soluble factors; aminoacylated (Phe); Nitrocellulose filter binding, 30 C, 35 min (A-site) or 40 min (P-site), poly(U)-primed ribosomes; buffer, salt and pH not given; errors are SD

Row | Substance | Kd [1] [nM] | Kd [2] [nM] | Kd [3] [nM] | Kd [4] [nM] | Kd [5] [nM] | Kd [6] [nM] | Kd [7] [nM]
1 | Ac-Phe-tRNAPhe (P-site) | 41 | 42.8 | 99.2 | 122 | 72.3 | – | –
2 | Phe-tRNAPhe (A-site) | – | – | – | – | – | 97.6 | 176
